Patent US11702475B2, “Cysteine engineered fibronectin type III domain binding molecules” (Janssen Biotech, Inc., priority 2013, dated 2023)

How the values were obtained:
[1] = molecular target: T1, EGFR-Fc (recombinant human extracellular domain of EGFR fused to an IgG1 Fc) (Homo sapiens, UniProt P00533); assay: Affinity of FN3 domains to EGFR-Fc by surface plasmon resonance (ProteOn), incl. off-rate screen; type: binding; settings: SPR ProteOn, 1:1 Langmuir fit
T1 construct: purchased R&D Systems
Method: Select EGFR-binding FN3 domains were screened to identify those with slow off-rates (koff) in binding to EGFR-Fc on a ProteOn XPR-36 instrument (Bio-Rad) to facilitate selection of high affinity binders. Goat anti-human Fc IgG (R&D systems), at a concentration of 5 μg/mL, was directly immobilized via amine coupling (at pH 5.0) on all 6 ligand channels in horizontal orientation on the chip with a flow rate of 30 μL/min in PBS containing 0.005% Tween-20. The immobilization densities averaged about 1500 Response Units (RU) with less than 5% variation among different channels. EGFR-Fc was captured on the anti-human Fc IgG surface to a density around 600 RU in vertical ligand orientation. All tested FN3 domains were normalized to a concentration of 1 μM and tested for their binding in horizontal orientation. […] The dissociation phase was monitored for 10 minutes at a flow rate of 100 μL/min. […]
Binding affinity of selected EGFR-binding FN3 domains to recombinant EGFR extracellular domain was further characterized by surface Plasmon resonance methods using a Proteon Instrument (BioRad). […] The dissociation phase for all concentrations of each EGFR-binding FN3 domain was monitored at a flow rate of 100 μL/min for 30 minutes (for those with koff˜10^−2 s^−1 from off-rate screening), or 1 hour (for those with koff˜10^−3 s^−1 or slower). […]

[2] = molecular target: T2, EGFR on A431 cells (EGF binding) (Homo sapiens, UniProt P00533); assay: A431 cell EGF competition assay; settings: biotinylated EGF 30 ng/mL
T2 construct: A431 cells (American Type Culture Collection, cat. #CRL-1555) over-express EGFR; host or cells: A431
Method: To better characterize the mechanism of EGFR binding, the ability of various identified FN3 domain clones to bind EGFR in an EGF-competitive manner was measured using A431 cells and run in parallel with the A431 binding assay screen. A431 cells were plated at 5,000/well in opaque black 96-well plates and allowed to attach overnight at 37° C., in a humidified 5% CO2 atmosphere. Cells were incubated with 50 μL/well of 1:1,000 diluted bacterial lysate for 1 hour at room temperature in triplicate plates. Biotinylated EGF (Invitrogen, cat. #E-3477) was added to each well to give a final concentration of 30 ng/mL and incubated for 10 minutes at room temperature. Cells were washed 3 times with 150 μL/well of FACS stain buffer. […] Cells were washed 3 times with 150 μL/well of FACS stain buffer, after which wells were filled with 100 μL of FACS stain buffer and read for fluorescence at 600 nm using an Acumen eX3 reader.
A431 cells were plated at 5,000/well in opaque black 96-well plates and allowed to attach overnight at 37° C., in a humidified 5% CO2 atmosphere. […] Cells were washed 3 times with 150 μL/well of FACS stain buffer, after which wells were filled with 100 μL of FACS stain buffer and read for fluorescence at 600 nm using an Acumen eX3 reader. […]

NCI-H322 cells = assay: NCI-H322 growth assay; type: cell-based, human; settings: 120 hours, CellTiter-Glo
Method: Inhibition of EGFR-dependent cell growth was assessed by measuring viability of the EGFR over-expressing human tumor cell lines, NCI-H292 and NCI-H322 (American Type Culture Collection, cat. #CRL-1848 & #CRL-5806, respectively), following exposure to EGFR-binding FN3 domains. Cells were plated at 500 cells/well (NCI-H292) or 1,000 cells/well (NCI-H322) in opaque white 96-well tissue culture-treated plates (Nunc) in 1004/well of RPMI medium (Gibco) containing GlutaMAX™ and 10 mM HEPES, supplemented with 10% heat inactivated fetal bovine serum (Gibco) and 1% penicillin/streptomycin (Gibco), and allowed to attach overnight at 37° C. in a humidified 5% CO2 atmosphere. Cells were treated by addition of 54/well of phosphate-buffered saline (PBS) containing a concentration range of EGFR-binding FN3 domains. […] Viable cells were detected by addition of 754/well of CellTiter-Glo® reagent (Promega), followed by mixing on a plate shaker for 2 minutes, and incubation in the dark at room temperature for a further 10 minutes. Plates were read on a SpectraMax M5 plate reader (Molecular Devices) set to luminescence mode, with a read time of 0.5 seconds/well against a blank of medium only. […] IC50 values were determined by fitting data to the equation for a sigmoidal dose response with variable slope using GraphPad Prism 4 (GraphPad Software).

B1: P54AR4-47: EGFR-binding FN3 domain, SEQ ID NO: 20 (protein)
chain: LPAPKNLVVSEVTEDSLRLSWGYNGDHFDSFLIQYQESEKVGEAINLTVPGSERSYDLTGLKPGTEYTVSIYGVHNVYKDTNMRGLPLSAEFTT
modifications: EGFR binding FN3 domain
With B1 the Kd [1] was 2.51 nM, the IC50 [2] was 7.1 nM and the IC50 (NCI-H322 cells) was 39 nM.
